Measured values reported in PMC5405149.

These sequences were tested against T1, r-YycF (His-GB1-YycF) (Staphylococcus epidermidis (1457?)) (UniProt Q8CQK0) (assay: EMSA). Conditions: EMSA: 20 nM DNA, 10 mM Tris pH 8.0, 25 mM KCl, 1 mM EDTA, 2.5 mM MgCl2, 5% glycerol, 37 C 30 min; footprinting: 200 ng probe, binding at 30 C 30 min, DNase I ….
T1 sequence: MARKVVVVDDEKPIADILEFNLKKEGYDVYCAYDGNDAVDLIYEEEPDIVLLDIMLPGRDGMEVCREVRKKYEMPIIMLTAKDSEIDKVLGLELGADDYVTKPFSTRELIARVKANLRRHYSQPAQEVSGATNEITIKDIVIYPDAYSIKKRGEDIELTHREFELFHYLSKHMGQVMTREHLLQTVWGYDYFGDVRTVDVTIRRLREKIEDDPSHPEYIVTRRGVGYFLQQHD
In the case of “AAACTAAATTGACCATCACTTAACTAGGTGCTCTGTTAAACTTTTGTTATAAATTAAAGATAGAAGCAACCTATTCATATAAAGTGGTATCTCTTGACAATTTTACTCGTTTATAAGATGTTATAATTATGTAGTGTATAAGGAGGCATA (double strand) [rpsA promoter 150 bp]”, the binding is reported as “binds”.
For “ATAATGCTAGAGGGACTTTTTCTAAAGACAGTCTACTTATTCGACTATCTATTAAGGTGGTTCATGGTAAAATGATACTAGTTTCATAACAAATCATTTACAATTTTGAATTACATCTTTAGAAATACGAGTTAATTGTTTAAGATGTAGCGTGAGGTG (double strand) [arlR promoter 159 bp]”, the binding was “binds”.
With “ATGATAGGAATCATTACGGTTATTCATAAAAATTAGCATCCTATTTCATGTAATTGTAGTGTAAAAAATAGGCGTTTATTTTTATTTCAGTGTAACCTGCACG (double strand) [sceD promoter 103 bp]” the binding was “binds”.
For “ATTATTCAAATGCTTGTAGTTTTATAAGTCGCATTATTATTTTTAAATATTTTCACTATTGAATGGATTTTGATCTTCTTTATAAAAAATAAATAAAAGGTTTAAAGTTAAATAAAATTTAAAAAATAATAATTTATACAAAATGATATTTTTTTTAATCATAAATAATATGTAAAGTATTGCGTTAAAATGTAAAAGAAGGTAACATTACATACTAGATACATAAAATATATGTATCTTACATTTAAAATTAAATACATGGGAGGTATAAT (double strand) [aap promoter]”, the binding was “binds”.
With “CACATTGCTATGTTAATTATTATCAAAAAGAATTTTCAGTAATTTTACATTCATGTAACAGTGTTTGTGTTGCTCAAAATAAAATACTTTAAAAAAGCTGAGCGTATCATTTCTATTCATATTACATAAATTAATTGGGTTAAATGAGATTGTGTAACAATATTAGCAAAAAATTACAAATCAATAACAATGCACACAAACATCAATTTTTCTGTTAGAGTATGGCTTGTCG (double strand) [ssaA1 promoter 232 bp]” the binding was “binds”.
In the case of “CACGATTTTAGTATTGTCTTCAAAAAATCTTAGTATTTGCTATATATTATGTTAATACATGTATATCTTAGCATTATTTAAATAAGGAATGAATTATTTAAAGGTGAGCGCAACAAAATTTTAAGTATATTTTAACACTACCTTAACAGTCTTTAATGAATGATTTTATCACTATCTAATAGAACGTG (double strand) [murE promoter 188 bp]”, the binding is reported as “binds”.
In the case of “CATCTATTCATTCAATCAAGTATTTTTATTCTTTATAAAACTATGTTAGCAAATTAAATTTTAATACACGTTTCATTAATTCAAATCCCATTCTTAACAAAAAATTTACAATAACTCTATTTTGATTTAATAAAAGATATGTAACATGAGAACTGTAAGAAATACATAT (double strand) [pstS promoter 167 bp]”, the binding is reported as “binds”.
For “TGATTTTATCGCTCATCATTTTTAATAAGATTATGAGACACTTATGTAAAAATTTAATATCTAGTTTGTTAAGAATTTGTAAATAGAATTGTGGTTATGTAAATTTTGTGATATTTTCAAGTAGGGACAAAACTGGATGTTGGCGAACATCAATAAATGATTACTATATATTAAATTTACACAATTTTTACAATATAAGAATTGCTAGTTACTTTTTATAATAATTGTAAATCAGTTCCTCAACCACTT (double strand) [pitR promoter 249 bp]”, the binding was “binds”.
For “TTACAAACCCCGTCATATCTAGGACTAACAGACCTCAATTATATAAATAAGTAATTTTTTTTGAACATACTCTTGTAAATATTGTGTAATAAACTAAAATTATTGGTAAGCCCTACATTTGTAGTATTAGGAGGTCAAAAAAAGTGTCAAAATTTAAGTCTTTGCTTCTATTATTTGGCA (double strand) [qoxB promoter 180 bp]”, the binding was “binds”.
In the case of “TTCTAAAATCTCCCCCTTATTCAATTTTCTAAAAATATATTACAGAAAAATTAAGTTAAAATTACAAATATTACTGTTTCAGTATAACAACATTCTATTGCAAATTGAAATACTTTCGATTAGCATATGCTTTACAACCTAACTAACGAAAGGTAGGTGAAAAA (double strand) [ica intergenic region (icaR-icaA)]”, the binding is reported as “binds”.
